Measured values taken from publication PMC8804921.
Positions count from the first letter of the chain named.

Tests used:
[1] = target: HSFA1a-MBP (UniProt P41151 1-495); assay: EMSA
[2] = target: T1, BES1 (BES1-GST / GST-BES1);HSFA1a-MBP (Arabidopsis thaliana?;Arabidopsis …, UniProt Q9LN63;P41151 1-335;1-495, |); assay: EMSA
[3] = target: T1, BES1 (BES1-GST / GST-BES1);HSFA1a-MBP; assay: competition
[4] = target: BES1 (BES1-GST / GST-BES1) (UniProt Q9LN63 1-335); assay: EMSA
Chain of BES1 (BES1-GST / GST-BES1) (Q9LN63 whole entry): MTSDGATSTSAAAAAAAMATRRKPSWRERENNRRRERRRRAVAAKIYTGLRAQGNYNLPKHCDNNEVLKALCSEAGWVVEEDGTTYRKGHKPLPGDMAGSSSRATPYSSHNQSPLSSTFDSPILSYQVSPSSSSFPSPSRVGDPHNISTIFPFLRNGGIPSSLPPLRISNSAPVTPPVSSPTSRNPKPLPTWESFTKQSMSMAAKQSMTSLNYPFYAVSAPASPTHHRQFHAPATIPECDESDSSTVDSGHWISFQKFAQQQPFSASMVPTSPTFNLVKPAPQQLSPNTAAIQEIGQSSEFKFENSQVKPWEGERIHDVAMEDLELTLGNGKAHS

T1 sequence (Q9LN63 whole entry, chain 1 of 2): as the sequence (Q9LN63 whole entry) above
T1 sequence (P41151 whole entry, chain 2 of 2): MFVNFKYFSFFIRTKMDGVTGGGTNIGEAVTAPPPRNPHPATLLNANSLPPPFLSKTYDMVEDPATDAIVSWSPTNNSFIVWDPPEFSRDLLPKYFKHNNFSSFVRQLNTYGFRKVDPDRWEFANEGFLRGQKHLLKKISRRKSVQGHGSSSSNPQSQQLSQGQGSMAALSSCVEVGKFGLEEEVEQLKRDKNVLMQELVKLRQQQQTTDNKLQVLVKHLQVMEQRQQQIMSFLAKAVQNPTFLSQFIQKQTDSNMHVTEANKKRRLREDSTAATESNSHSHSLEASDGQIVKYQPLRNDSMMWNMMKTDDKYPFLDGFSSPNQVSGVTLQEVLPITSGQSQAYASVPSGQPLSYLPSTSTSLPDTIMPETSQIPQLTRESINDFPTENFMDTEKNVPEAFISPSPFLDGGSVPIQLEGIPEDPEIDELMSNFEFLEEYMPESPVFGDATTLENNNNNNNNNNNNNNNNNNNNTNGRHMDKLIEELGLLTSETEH
Chain of HSFA1a-MBP (P41151 whole entry): as the sequence (P41151 whole entry, chain 2 of 2) above

B1: pHSP70.3 EMSA HSE (C1 +HSE) (dsDNA)
DNA 1: TTACATAGCGAGCCATCGAACCTTCTCGAAACTCGAGTACAAGACTC
DNA 2: GAGTCTTGTACTCGAGTTTCGAGAAGGTTCGATGGCTCGCTATGTAA
binding result [1]: binds | binding result [2]: binds

B2: pHSP70.3 EMSA HSEmut (C2 -HSE) (dsDNA)
DNA 1: B1 DNA 1 with G18T, C25A, G28T
DNA 2: B1 DNA 2 with C20A, G23T, C30A
binding result [3]: no binding

B3: pHSP90.1 EMSA HSE (C1 +HSE) (dsDNA)
DNA 1: GAGTCTCGAAACGAAAAGAACTTTCTGGAATTCGTTTGCTCACAAAG
DNA 2: CTTTGTGAGCAAACGAATTCCAGAAAGTTCTTTTCGTTTCGAGACTC
binding result [1]: binds | binding result [2]: binds

B4: pHSP70.3 EMSA BRRE (C1 +BRRE) (dsDNA)
DNA 1: ATCCAACTCCAAAAGATCGTGCGGTTACATAGCGAGCCAT
DNA 2: ATGGCTCGCTATGTAACCGCACGATCTTTTGGAGTTGGAT
binding result [4]: binds

B5: pHSP90.1 EMSA BRRE (C1 +BRRE) (dsDNA)
DNA 1: TCCATCAGCTACAAAGTCGTGTGCGATTTTGAGTCGTTGT
DNA 2: ACAACGACTCAAAATCGCACACGACTTTGTAGCTGATGGA
binding result [4]: binds
